According to patent publication US8357523B2, “Beta-glucosidase variant enzymes and related polynucleotides” (Codexis, Inc., priority 2009, dated 2013):
Changes are numbered by the printed parent chain.

B1: 278 (protein)
chain: STAIAQEGAAPAAMLHPEKWPRPATQRLIDPAVEKRVDALLKQLSVEEKVGQVIQGDIGTITPEDLRKYPLGSILAGGDSGPNGDDRAPPKEWLDLADAFYRVSLEKRPGHTPIPVLFGIDAVHGHGNIGSATIFPHNIALGMTRDPELLRRIGEVTAEEMAATGIDWTFAPALSVVRDDRWGRTYEGFSEDPEIVASYSPAIVEGVQGKYGSKDFMAPGRIVASAKHFLADGGTDQGRDQGDARISEDELIRIHNAGYPPAIDAGVLTVMASFSSWQGIKHHGHKQLLTDVLKGQMGFNGFIVGDWNAHDQVPGCTKFNCPTSLIAGLDMYMAADSWKQLYENTLAQVKDGTIPMARLDDAVRRILRVKVLAGLFEKPAPKDRPGLPGLETLGSPEHRAVGREAVRKSLVLLKNDKGTLPLSPKARVLVAGDGADNIGKQSGGWTISWQGTGNRNDEFPGATSILGGIRDAVADAGGSVEFDVAGQYKTKPDVAIVVFGEEPYAEFRGDVETLEYQPDQKQDLTLLKKLKDQGIPVVAVFLSGRPMWVNPELNASDAFVAAWLPGTEGGGVADVLFTDKAGKVQHDFAGKLSYSWPRTAAQTTVNRGDADYNPLFAYGYGLTYKDRSKVGTLPEESGVPAEARQN
B2: 213 (protein)
chain: STAIAQEGAGPAAILHPEKWPRPATQRLIDPAVEKRVDALLKQLSVEEKVGQVIQGDIGTITPEDLRKYPLGSILAGGDSGPNGDDRAPPKEWLDLADAFYRVSLEKRPGHTPIPVLFGIDAVHGHGNIGSATIFPHNIALGMTRDPELLRRIGEVTAEEMAATGIDWTFAPALSVVRDDRWGRTYEGFSEDPEIVASYSAAIVEGVQGKYGSKDFMAPGRIVASAKHFLADGGTDQGRDQGDARISEDELIRIHNAGYPPAIDAGVLTVMASFSSWQGIKHHGHKQLLTDVLKGQMGFNGFIVGDWNAHDQVPGCTKFNCPTSLIAGLDMYMAADSWKQLYENTLAQVKDGTIPMARLDDAVRRILRVKVLAGLFEKPAPKDRPGLPGLETLGSPEHRAVGREAVRKSLVLLKNDKGTLPLSPKARVLVAGDGADNIGKQSGGWTISWQGTGNRNDEFPGATSILGGIRDAVADAGGSVEFDVAGQYKTKPDVAIVVFGEEPYAEFQGDVETLEYQPDQKQDLALLKKLKDQGIPVVAVFLSGRPMWVNPELNASDAFVAAWLPGTEGGGVADVLFTDKAGKVQHDFAGKLSYSWPRTAAQTTVNRGDADYNPLFAYGYGLTYKDKSKVGTLPEESGVP
B3: 283 (protein)
chain: B2 chain with G10A, V371M
B4: 133 (protein)
chain: STAIAQEGAAPAAILHPEKWPRPATQRLIDPAVEKRVDALLKQLSVEEKVGQVIQGDIGTITPEDLRKYPLGSILAGGDSGPNGDDRAPPKEWLDLADAFYRVSLEKRPGHTPIPVLFGIDAVHGHGKIGSATILPHNIALGMTRDPELLRRIGEVTAVEMTATGIDWTFAPCLSVVRDDRWGRTYEGFSEDPEIVASYSAAIVEGVQGKFGSKDFMAVGRIVASAKHFLADGGTDQGRDQGDARISEDELIRIHNAGYPPAIDAGVLTVMASFSSWQGIKHHGHKQLLTDVLKGQMGFNGFIVGDWNAHDQVPGCTKFNCPTSLIAGLDMYMAADSWKQLYENTLAQVKDGTIPMARLDDAVRRILRVKVLAGLFEKPAPKDRPGLPGLETLGSPEHRAVGREAVRKSLVLLKNDKGTLPLSPKARVLVAGDGADNIGKQSGGWTISWQGTGNRNDEFPGATSILGGIRDAVADAGGSVEFDVAGQYKTKPDVAIVVFGEEPYAEFQGDVETLEYQPDQKQDLALLKKLKDQGIPVVAVFLSGRPMWVNPELNASDAFVAAWLPGTEGGGVADVLFTDKAGKVQHDFAGKLSYSWPRTAAQTTVNRGDADYNPLFAYGYGLTYKDKSKVGTLPEESGVPAEARQNAGIYFRAGALRLPGRFL
B5: 284 (protein)
chain: B4 chain with K128N, L135F, V159E, T162A, C173A, F211Y, V219P, G298R, D311E
B6: 282 (protein)
chain: B4 chain with K128N, L135F, V159E, T162A, C173A, F211Y, V219P, I246C

Assay: High throughput cellobiose assay: fold improvement in cellobiase activity of CelA variants over a control enzyme (Tables 2A-2D, 3, 5, 6, 7)
Assay type: biochemical
Conditions: 3.3 g/l cellobiose; for Fold improvement over Control Variant No. 94 from Table 2B: 55° C. and pH 5.3 (incubation overnight)

Molecule	Fold improvement over Control Variant No. 94 from Table 2B	Fold improvement over Control Variant No. 5 from Table 2A (55° C. and pH 6.0)
B1	++++ (++++ = 1.1 to 1.5 fold improvement over Control No. 3, Variant No. 94)	
B2	++++ (++++ = 1.1 to 1.5 fold improvement over Control No. 3, Variant No. 94)	
B3	++++ (++++ = 1.1 to 1.5 fold improvement over Control No. 3, Variant No. 94)	
B4		++ (++ = 1.1 to 6 fold improvement over control Variant No. 2)
B5	++++ (++++ = 1.1 to 1.5 fold improvement over Control No. 3, Variant No. 94)	
B6	++++ (++++ = 1.1 to 1.5 fold improvement over Control No. 3, Variant No. 94)	
